{"source": "patent US20230242902A1", "about": "“A HIGHLY ERROR-PRONE […] R[…] FOR TARGETED CONTINUOUS EVOLUTION IN VIVO” (The Regents of the University of California, priority 2017, published 2023)", "molecules": {"B1": {"name": "L640A, M779L (protein)", "chain": "MDYKDKALNDLRNVYADFDSLPLDFRQILIKDRATLLQKEDVEKKILERQEDAKKYAEYLKQSEIPERISLPNIKRHKGVSISFEETSEDMVLEPRPFIFDGLNIRCFRRETIFSLKNKILNMVKESSSFKNVSRQSVSFMYFKIFNKGKVIASTKSVNIYEDKIDERLEDLCNNFDDVLKKIIDVTYGYESLFVSETYSYVIFYAKSIYFPQPRCVNNWGNNIPNILTFDSFKLFTANKNNVSCIKQCSRFLWQKDFNTLEEMIEYKNGNICIVTPQLHINDVRDIKSFNDIRLYSESPIKTFSVIDNTITYLFYFKEHLGVIFNITKSRHDRRVTKFSPLSKFSDVKNITVCFDIESYFDPEKESNQVNIPFICCASIIYNKVIGNIVDFEGRDCVAQMIEYVVDICGELNISSVELIAHNGGGYDFHYILSSMYNPAAIKNILIRNNSFISFNFAHDGVKFSVKDSYSFLLCSLANASKAFLNEETFKKTDFPHHDLKTADDLYKVYKEWSSVNTEINHVVEKEKLLITSEHIVNFTKNDKSKTLIEWSKDYCRNDVLVLSKVWLEFKNAVEDIFNCELVDQTMTLAGLSYKLFQANMPFDVELRHPNKEDYFNMREALIGGRCISVNGIYKDVLCADVKSLYPASMAFYDQPYGSFKRVSSRPKDELGIYYVRVTPNRNNKSNFFPIRSHNKITYNNFEESTYIAWYTNVDIDIGLSEGHNIEYIPFDSYGNIGYSWSKKGKIFEKYIKDVLYKLKIKYEKQNNKVKRNVIKIILNSLWGKFAQKWVNFEYFIKSEDDIDFESEEAYKIWDTDFMLIKKIKESTYSSKPIQNGVFTLSWARYHMKSIWDAGAKEGAECIYSDTDSIFVHKEHFKKNAKFMLNGLKVPIIGSEVGQLELECEFDKLLCAGKKQYMGFYTYFQDGKPCIKEKKRFKGIPSNYIIPELYAHLLSGADKEAKIQFLKFRREWGSVKGYIENKTVKAT"}, "B2": {"name": "Y653L, I775A (protein)", "chain": "B1 chain with A640L, Y653L, I775A, L779M"}, "B3": {"name": "L640G, I775A (protein)", "chain": "B1 chain with A640G, I775A, L779M"}, "B4": {"name": "F652L, I775A (protein)", "chain": "B1 chain with A640L, F652L, I775A, L779M"}, "B5": {"name": "L640Y, I777A (protein)", "chain": "B1 chain with A640Y, I777A, L779M"}, "B6": {"name": "L640N, I777A (protein)", "chain": "B1 chain with A640N, I777A, L779M"}, "B7": {"name": "L645M, I777K (protein)", "chain": "B1 chain with A640L, L645M, I777K, L779M"}, "B8": {"name": "Y653L, I777A (protein)", "chain": "B1 chain with A640L, Y653L, I777A, L779M"}, "B9": {"name": "L645M, M779L (protein)", "chain": "B1 chain with A640L, L645M"}, "B10": {"name": "L640G, I777K, W814N (protein)", "chain": "B1 chain with A640G, I777K, L779M, W814N"}, "B11": {"name": "I775A, F871Y (protein)", "chain": "B1 chain with A640L, I775A, L779M, F871Y"}, "B12": {"name": "L640G, I777A (protein)", "chain": "B1 chain with A640G, I777A, L779M"}, "B13": {"name": "Y653L, I777K (protein)", "chain": "B1 chain with A640L, Y653L, I777K, L779M"}}, "note": "Where a chain is given by its changes, count along the chain named. Numbers in names are those of the source.", "data": [{"system": "p1-encoded leu2 (Q180*)", "assay": "Large-scale p1 fluctuation tests of p1-encoded leu2 (Q180*), per-base substitution rate", "type": "cell-based, S. cerevisiae", "details": "per-base substitution rate, p1-encoded leu2 (Q180*), large-scale fluctuation test", "description": "All three TP-DNAP1 libraries were screened through small scale p1 fluctuation tests in a metastable S. cerevisiae strain, OR-Y24. OR-Y24 contains w.t. p1 and recombinant p1 that lacks w.t. TP-DNAP1, and instead, encodes a standardized fluorescence reporter of p1 copy number (Table 1), and a disabled version of the LEU2 selection marker (leu2 (Q180*)). As described previously (Ravikumar et al., 2014), leu2 (Q180*) contains a C→T mutation at base 538 in LEU2 at a site permissive to all single point mutants that generate missense mutations. Reversion to functional LEU2 can be detected on medium lacking leucine.\nLarge-scale fluctuation tests of p1-encoded leu2 (Q180*) were performed to precisely determine per-base substitution rates for individually cloned or isolated TP-DNAP1 variants. Large-scale p1 fluctuation tests are performed similarly to small-scale p1 fluctuation tests, with several modifications. First, large-scale p1 fluctuation tests were typically performed with 36-48 replicates. For highly error-prone TP-DNAP1s obtained from later rounds of screening, fewer replicates (3-16) were used, which is sufficient for similar precision (Foster et al., 2006). Second, p1 copy number was determined by the flow cytometry method, described below. Third, cell titers were measured for each fluctuation test to estimate the average number of cells per culture. Cell resuspensions were diluted and plated on solid SC-UH medium, and colony counts were determined after incubation at 30° C. for 2-3 days. Alternatively, cell resuspensions were diluted and subject to an event-count measurement via flow cytometry. Fourth, inoculums of highly error-prone TP-DNAP 1 s occasionally contained pre-existing mutants, despite the 1:10,000 dilution, so mutant frequencies were estimated by plating pre-cultures on solid SC-UHLW, pH 5.8 medium. Plates were incubated for 2-3 days, in parallel with cultures grown for fluctuation tests. Pre-culture mutant titers were counted to estimate the number of replicates in the fluctuation test expected to contain pre-existing mutants (n). Revertants were counted from all replicates of the fluctuation tests, counts were sorted, and n replicates with the highest counts were omitted from calculations.\nTo calculate per-base substitution rates, fluctuation data were analyzed by the maximum likelihood method, implemented using newton.LD.plating in rSalvador 1.7 (Zheng, 2017). Phenotypic mutation rates were calculated by normalizing to the average number of cells per culture. Phenotypic mutation rates were divided by the measured p1 copy number and by the number of ways leu2 (Q180*) can revert to LEU2 (2.33 for the ochre codon) to yield per-base substitution rates. 95% confidence intervals were similarly scaled by these factors. All data related to large-scale p1 fluctuation tests are fully described in Table 2.", "values": [{"molecule": "B1", "Mutation rate (s.p.b.)": "2.79 × 10^−9 s.p.b."}, {"molecule": "B2", "Mutation rate (s.p.b.)": "9.70 × 10^−9 s.p.b."}, {"molecule": "B3", "Mutation rate (s.p.b.)": "1.81 × 10^−8 s.p.b."}, {"molecule": "B4", "Mutation rate (s.p.b.)": "6.08 × 10^−9 s.p.b."}, {"molecule": "B5", "Mutation rate (s.p.b.)": "5.70 × 10^−8 s.p.b."}, {"molecule": "B6", "Mutation rate (s.p.b.)": "3.04 × 10^−8 s.p.b."}, {"molecule": "B7", "Mutation rate (s.p.b.)": "9.19 × 10^−9 s.p.b."}, {"molecule": "B8", "Mutation rate (s.p.b.)": "2.02 × 10^−8 s.p.b."}, {"molecule": "B9", "Mutation rate (s.p.b.)": "4.99 × 10^−9 s.p.b."}, {"molecule": "B10", "Mutation rate (s.p.b.)": "2.63 × 10^−7 s.p.b."}, {"molecule": "B11", "Mutation rate (s.p.b.)": "4.73 × 10^−8 s.p.b."}, {"molecule": "B12", "Mutation rate (s.p.b.)": "9.28 × 10^−8 s.p.b."}, {"molecule": "B13", "Mutation rate (s.p.b.)": "9.59 × 10^−8 s.p.b."}]}]}
